According to publication PMC8325870, “SUMOylated non-canonical polycomb PRC1.6 complex as a prerequisite for recruitment of transcription factor RBPJ”:

Molecular target: RBPJ wt (UniProt P31266 1-526)
Experiment: EMSA; anti-Flag supershift; 10 mM Tris-HCl pH 7.5, 100 mM NaCl, 0.1 mM EDTA, 0.5 mM DTT, 4% glycerol, 10 ng poly(dI-dC), ~0.5 ng 32P-oligo, 2 or 4 ul reticulocyte lysate; temperature not stated
Conditions: protein: ivt; tags: Flag; label: 32P; 5' overhang 4 nt at both ends (CCTG on F, CTCG on R)

Sequence of RBPJ wt (P31266 whole entry): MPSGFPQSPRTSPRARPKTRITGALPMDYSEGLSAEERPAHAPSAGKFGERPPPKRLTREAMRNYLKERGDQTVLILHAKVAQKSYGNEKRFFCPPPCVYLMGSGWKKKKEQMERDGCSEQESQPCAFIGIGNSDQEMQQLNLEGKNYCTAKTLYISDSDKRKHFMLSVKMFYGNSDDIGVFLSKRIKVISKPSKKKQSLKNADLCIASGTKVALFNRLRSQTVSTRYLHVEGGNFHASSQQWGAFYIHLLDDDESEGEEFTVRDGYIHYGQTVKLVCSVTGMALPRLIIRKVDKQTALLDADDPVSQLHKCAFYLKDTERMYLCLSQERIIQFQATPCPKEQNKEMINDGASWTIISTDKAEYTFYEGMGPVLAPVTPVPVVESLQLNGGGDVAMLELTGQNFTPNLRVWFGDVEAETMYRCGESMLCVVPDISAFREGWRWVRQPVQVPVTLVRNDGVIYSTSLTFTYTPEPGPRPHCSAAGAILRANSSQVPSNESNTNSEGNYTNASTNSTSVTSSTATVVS

B1: FO-233F/FO-233R (EBV TP-1 promoter, two RBPJ sites) (dsDNA)
DNA 1: CCTGGAACTATTTTCCCACGGTGCCCTTCCGCCCATTTTCCCACGAGTCG
DNA 2: CTCGCGACTCGTGGGAAAATGGGCGGAAGGGCACCGTGGGAAAATAGTTC
B1: binds.
